# According to PMC10730906:
# Target: purified TslA lipase domain (N-terminal domain of SAOUHSC_00406) (S. aureus) (UniProt Q2G0W8)
# Assay: ITC; 30 uM TslA in the cell, 300 uM TilA in the syringe; 20 mM HEPES pH 7.5, 150 mM NaCl, 25 °C; Microcal PEAQ-ITC
binder,measurement,value
"purified TilA lacking its signal sequence, His tag removed (SAOUHSC_00405) (natural protein) CGNMKDEQKKEEQTNKTDSKEEQIKKSFAKTLDMYPIKNLEDLYDKEGYRDGEFKKGDKGTWTILTGFSKSNKPGVLDDEGMVLYLNRNTKKATGYYFVNKVYDDISKNHNEKKYRVELKNNKIVLLDNVEDKKLKQKIENFKFFSQYADFKDLKNYQDGNITTNENVPSYEAQYKMNNSDKNVKKLREIYPITTNNSPNLKLYIDGDIKGSSVGYKKIEYKFSKDKGQETTLRDYLNFGPSEGENVE",Kd,14.2 nM
same,dH,-20.5 kcal/mol
same,stoichiometry N,0.88
